Laboratory results from IntAct's records for PubMed 16858409.

B1: TNF receptor-associated factor 3 (Mus musculus), Q60803 (parent)
chain: MESSKKMDAAGTLQPNPPLKLQPDRGAGSVLVPEQGGYKEKFVKTVEDKYKCEKCRLVLCNPKQTECGHRFCESCMAALLSSSSPKCTACQESIIKDKVFKDNCCKREILALQVYCRNEGRGCAEQLTLGHLLVHLKNECQFEELPCLRADCKEKVLRKDLRDHVEKACKYREATCSHCKSQVPMIKLQKHEDTDCPCVVVSCPHKCSVQTLLRSELSAHLSECVNAPSTCSFKRYGCVFQGTNQQIKAHEASSAVQHVNLLKEWSNSLEKKVSLLQNESVEKNKSIQSLHNQICSFEIEIERQKEMLRNNESKILHLQRVIDSQAEKLKELDKEIRPFRQNWEEADSMKSSVESLQNRVTELESVDKSAGQAARNTGLLESQLSRHDQMLSVHDIRLADMDLRFQVLETASYNGVLIWKIRDYKRRKQEAVMGKTLSLYSQPFYTGYFGYKMCARVYLNGDGMGKGTHLSLFFVIMRGEYDALLPWPFKQKVTLMLMDQGSSRRHLGDAFKPDPNSSSFKKPTGEMNIASGCPVFVAQTVLENGTYIKDDTIFIKVIVDTSDLPDP
partner: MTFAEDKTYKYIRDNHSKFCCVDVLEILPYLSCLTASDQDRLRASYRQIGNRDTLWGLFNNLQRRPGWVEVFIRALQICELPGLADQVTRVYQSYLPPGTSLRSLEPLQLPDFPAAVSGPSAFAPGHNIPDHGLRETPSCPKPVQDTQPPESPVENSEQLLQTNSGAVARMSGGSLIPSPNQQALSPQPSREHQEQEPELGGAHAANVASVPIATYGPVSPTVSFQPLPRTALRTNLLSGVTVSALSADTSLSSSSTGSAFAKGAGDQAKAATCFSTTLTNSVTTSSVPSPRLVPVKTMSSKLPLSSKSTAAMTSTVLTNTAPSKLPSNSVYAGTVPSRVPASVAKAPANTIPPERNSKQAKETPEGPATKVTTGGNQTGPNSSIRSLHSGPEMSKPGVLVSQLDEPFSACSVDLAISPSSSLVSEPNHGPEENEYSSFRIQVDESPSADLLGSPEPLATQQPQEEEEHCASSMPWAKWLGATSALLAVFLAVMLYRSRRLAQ
B2: Mitochondrial antiviral-signaling protein (Mus musculus), Q8VCF0 (parent)
chain: B1 partner
partner: B1 chain

Variants of: B1
Settings: with mavs_mouse Mavs

Variant | effect of a mutation on the interaction
MESSKKMDAAGTLQPNPPLKLQPDRGAGSVLVPEQGGYKEKFVKTVEDKYKCEKCRLVLCNPKQTECGHRFCESCMAALLSSSSPKCTACQESIIKDKVFKDNCCKREILALQVYCRNEGRGCAEQLTLGHLLVHLKNECQFEELPCLRADCKEKVLRKDLRDHVEKACKYREATCSHCKSQVPMIKLQKHEDTDCPCVVVSCPHKCSVQTLLRSELSAHLSECVNAPSTCSFKRYGCVFQGTNQQIKAHEASSAVQHVNLLKEWSNSLEKKVSLLQNESVEKNKSIQSLHNQICSFEIEIERQKEMLRNNESKILHLQRVIDSQAEKLKELDKEIRPFRQNWEEADSMKSSVESLQNRVTELESVDKSAGQAARNTGLLESQLSRHDQMLSVHDIRLADMDLRFQVLETASYNGVLIWKIRDYKRRKQEAVMGKTLSLASQPFYTGYFGYKMCARVYLNGDGMGKGTHLSLFFVIMRGEYDALLPWPFKQKVTLMLMDQGSSRRHLGDAFKPDPNSSSFKKPTGEMNIASGCPVFVAQTVLENGTYIKDDTIFIKVIVDTSDLPDP [Y440A] | disrupting interaction
MESSKKMDAAGTLQPNPPLKLQPDRGAGSVLVPEQGGYKEKFVKTVEDKYKCEKCRLVLCNPKQTECGHRFCESCMAALLSSSSPKCTACQESIIKDKVFKDNCCKREILALQVYCRNEGRGCAEQLTLGHLLVHLKNECQFEELPCLRADCKEKVLRKDLRDHVEKACKYREATCSHCKSQVPMIKLQKHEDTDCPCVVVSCPHKCSVQTLLRSELSAHLSECVNAPSTCSFKRYGCVFQGTNQQIKAHEASSAVQHVNLLKEWSNSLEKKVSLLQNESVEKNKSIQSLHNQICSFEIEIERQKEMLRNNESKILHLQRVIDSQAEKLKELDKEIRPFRQNWEEADSMKSSVESLQNRVTELESVDKSAGQAARNTGLLESQLSRHDQMLSVHDIRLADMDLRFQVLETASYNGVLIWKIRDYKRRKQEAVMGKTLSLYSAPFYTGYFGYKMCARVYLNGDGMGKGTHLSLFFVIMRGEYDALLPWPFKQKVTLMLMDQGSSRRHLGDAFKPDPNSSSFKKPTGEMNIASGCPVFVAQTVLENGTYIKDDTIFIKVIVDTSDLPDP [Q442A] | disrupting interaction

Variants of: B2
Settings: with traf3_mouse Traf3, Q60803

Variant | effect of a mutation on the interaction
MTFAEDKTYKYIRDNHSKFCCVDVLEILPYLSCLTASDQDRLRASYRQIGNRDTLWGLFNNLQRRPGWVEVFIRALQICELPGLADQVTRVYQSYLPPGTSLRSLEPLQLPDFPAAVSGPSAFAPGHNIPDHGLRETPSCPKPVQDIQPPESPVENSEQLLQTNSGAVARMSGGSLIPSPNQQALSPQPSREHQEQEPELGGAHAANVASVPIATYGPVSPTVSFQPLPRTALRTNLLSGVTVSALSADTSLSSSSTGSAFAKGAGDQAKAATCFSTTLTNSVTTSSVPSPRLVPVKTMSSKLPLSSKSTAAMTSTVLTNTAPSKLPSNSVYAGTVPSRVPASVAKAPANTIPPERNSKQAKETPEGPATKVTTGGNQTGPNSSIRSLHSGPEMSKPGVLVSQLDEPFSACSVDLAISPSSSLVSEPNHGPEENEYSSFRIQVDESPSADLLGSPEPLATQQPQEEEEHCASSMPWAKWLGATSALLAVFLAVMLYRSRRLAQ [T147I] | disrupting interaction
